Numbering of substitutions follows the chain as printed. Names and notes keep the numbering of the source.
B1: HPPDm-5-02: nucleotide sequence encoding Avena sativa HPPD with A111T+K351N+F372A+F383W; vector DBN11786 (nucleic acid)
DNA: ATGCCACCTACTCCAGCTACAGCTACTGGTGCTGCTGCTGCTGCCGTTACTCCTGAGCACGCTGCCAGGTCATTCCCCAGGGTGGTTCGCGTGAACCCCAGATCTGATAGGTTCCCAGTTCTGAGCTTCCACCATGTTGAGCTGTGGTGCGCTGATGCTGCTTCTGCTGCTGGCAGGTTCTCTTTCGCTCTTGGTGCTCCACTCGCTGCTAGATCTGATCTGTCTACAGGAAATAGCGCTCATGCCTCACTCCTGCTTCGCTCAGGTGCTTTGGCCTTCCTCTTCACCGCTCCATATGCTCCCCCACCTCAGGAGGCTGCTACTGCTGCTACTACAGCCTCCATTCCAAGCTTCTCAGCTGATGCCGCTAGAACCTTCGCTGCTGCTCATGGACTTGCCGTGAGGTCTGTTGGTGTTCGCGTGGCTGATGCTGCTGAGGCTTTCAGAGTTTCCGTTGCCGGCGGAGCTAGGCCAGCTTTCGCTCCTGCTGATTTGGGACATGGTTTCGGCCTGGCTGAGGTTGAGCTTTACGGTGACGTGGTTCTCCGCTTCGTGTCTTACCCAGATGAGACTGACCTGCCTTTCCTTCCCGGCTTCGAGAGAGTTTCCTCTCCTGGTGCCGTGGATTACGGCCTGACAAGGTTCGACCACGTGGTTGGAAACGTTCCCGAGATGGCTCCAGTGATCGATTACATGAAGGGCTTCCTTGGATTCCATGAGTTCGCCGAGTTCACTGCTGAGGACGTGGGAACCACTGAGTCCGGTTTGAACTCTGTGGTTCTCGCCAACAATTCTGAGGCTGTTTTGCTCCCTCTGAATGAGCCTGTGCATGGAACCAAGAGGAGAAGCCAGATTCAAACTTACCTGGAGTACCACGGTGGCCCTGGAGTTCAGCATATCGCCCTTGCTTCTAATGATGTGTTGCGCACACTCAGAGAGATGCGCGCCAGAACCCCCATGGGAGGTTTCGAGTTCATGGCCCCACCACAGGCTAAGTACTACGAGGGCGTTAGAAGGATTGCTGGAGACGTGTTGAGCGAGGAGCAGATCAATGAGTGCCAAGAGCTGGGTGTTCTTGTGGATAGGGATGACCAGGGCGTTCTGCTTCAAATTGCCACTAAGCCAGTGGGCGACCGCCCTACATTCTGGCTTGAGATGATTCAAAGAATCGGCTGCATGGAGAAGGATGAGGTTGGACAGGAGTACCAAAAGGGCGGATGCGGTGGCTTCGGAAAGGGTAACTTCAGCGAGTTGTTCAAGTCAATCGAGGACTACGAGAAGAGCCTCGAGGTGAAGCAGTCAGTGGTTGCCCAAAAGTCCTGA
modifications: HPPDm-5-02 Nucleotide Sequence
notes: vector DBN11786
B2: HPPDm-6-02: nucleotide sequence encoding Avena sativa HPPD with A106G+K351N+F372A+F383W; vector DBN11787 (nucleic acid)
DNA: B1 DNA with C317G, A331G
modifications: HPPDm-6-02 Nucleotide Sequence
notes: vector DBN11787

Tests used:
Type in all cases: in vivo
[1] = tested on: Arabidopsis thaliana T1 plants; experiment: Mesotrione tolerance of transgenic Arabidopsis thaliana T1 plants (spray, bleached leaf area grade, damage score); parameters: Scores: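 damage score 0-100 computed as Σ(N×S)/(T×M)×100 over grades 0-3 with higher meaning more damage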; conditions: Table 12; for Classification and statistics of the grade of pesticide damage Grade 0: number of plants at grade 0; for Classification and statistics of the grade of pesticide damage Grade 1: number of plants at grade 1; for Classification and statistics of the grade of pesticide damage Grade 2: number of plants at grade 2; for Classification and statistics of the grade of pesticide damage Grade 3: number of plants at grade 3; for Scores: pesticide damage score
Outline: (§1)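 Damage graded 0–3 from the proportion of bleached leaf area 7 days after spraying. Plants were glufosinate-selected T1 lines, 18 days after sowing, plus vector and wild-type controls. Rates: mesotrione 52.5–420, isoxaflutole 35–280, topramezone 25–200 g ai/ha, with water (0×).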

[2] = tested on: Arabidopsis thaliana T1 plants; experiment: Topramezone tolerance of transgenic Arabidopsis thaliana T1 plants (spray, bleached leaf area grade, damage score); conditions: Table 10; for Classification and statistics of the grade of pesticide damage Grade 0: number of plants at grade 0; for Classification and statistics of the grade of pesticide damage Grade 1: number of plants at grade 1; for Classification and statistics of the grade of pesticide damage Grade 2: number of plants at grade 2; for Classification and statistics of the grade of pesticide damage Grade 3: number of plants at grade 3; for Scores: pesticide damage score
Outline: as §1

[3] = tested on: Arabidopsis thaliana T1 plants; experiment: Isoxaflutole tolerance of transgenic Arabidopsis thaliana T1 plants (spray, bleached leaf area grade, damage score); conditions: Table 11; for Classification and statistics of the grade of pesticide damage Grade 0: number of plants at grade 0; for Classification and statistics of the grade of pesticide damage Grade 1: number of plants at grade 1; for Classification and statistics of the grade of pesticide damage Grade 2: number of plants at grade 2; for Classification and statistics of the grade of pesticide damage Grade 3: number of plants at grade 3; for Scores: pesticide damage score;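 for Scores: Weighted damage index from 0 to 100 where higher means more damage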
Outline: as §1

Row | Molecule | Resistance evaluation ([1]; mesotrione 210 g ai/ha (2×)) | Classification and statistics of the grade of pesticide damage Grade 0 ([1]; mesotrione 210 g ai/ha (2×)) | Classification and statistics of the grade of pesticide damage Grade 1 ([1]; mesotrione 210 g ai/ha (2×)) | Classification and statistics of the grade of pesticide damage Grade 2 ([1]; mesotrione 210 g ai/ha (2×)) | Classification and statistics of the grade of pesticide damage Grade 3 ([1]; mesotrione 210 g ai/ha (2×)) | Scores ([1]; mesotrione 210 g ai/ha (2×)) | Resistance evaluation ([1]; mesotrione 420 g ai/ha (4×)) | Classification and statistics of the grade of pesticide damage Grade 0 ([1]; mesotrione 420 g ai/ha (4×)) | Classification and statistics of the grade of pesticide damage Grade 1 ([1]; mesotrione 420 g ai/ha (4×)) | Classification and statistics of the grade of pesticide damage Grade 2 ([1]; mesotrione 420 g ai/ha (4×)) | Classification and statistics of the grade of pesticide damage Grade 3 ([1]; mesotrione 420 g ai/ha (4×)) | Scores ([1]; mesotrione 420 g ai/ha (4×)) | Resistance evaluation ([2]; topramezone 100 g ai/ha (4×)) | Classification and statistics of the grade of pesticide damage Grade 0 ([2]; topramezone 100 g ai/ha (4×)) | Classification and statistics of the grade of pesticide damage Grade 1 ([2]; topramezone 100 g ai/ha (4×)) | Classification and statistics of the grade of pesticide damage Grade 2 ([2]; topramezone 100 g ai/ha (4×)) | Classification and statistics of the grade of pesticide damage Grade 3 ([2]; topramezone 100 g ai/ha (4×)) | Scores ([2]; topramezone 100 g ai/ha (4×)) | Resistance evaluation ([2]; topramezone 200 g ai/ha (8×)) | Classification and statistics of the grade of pesticide damage Grade 0 ([2]; topramezone 200 g ai/ha (8×)) | further results
1 | B1 | Highly resistant | 16 | 0 | 0 | 0 | 0 | Highly resistant | 16 | 0 | 0 | 0 | 0 | Highly resistant | 16 | 0 | 0 | 0 | 0 | Highly resistant | 16 | Classification and statistics of the grade of pesticide damage Grade 1 ([2]; topramezone 200 g ai/ha (8×)): 0; Classification and statistics of the grade of pesticide damage Grade 2 ([2]; topramezone 200 g ai/ha (8×)): 0; Classification and statistics of the grade of pesticide damage Grade 3 ([2]; topramezone 200 g ai/ha (8×)): 0; Scores ([2]; topramezone 200 g ai/ha (8×)): 0; Resistance evaluation ([3]; isoxaflutole 140 g ai/ha (2×)): Highly resistant; Classification and statistics of the grade of pesticide damage Grade 0 ([3]; isoxaflutole 140 g ai/ha (2×)): 16; Classification and statistics of the grade of pesticide damage Grade 1 ([3]; isoxaflutole 140 g ai/ha (2×)): 0; Classification and statistics of the grade of pesticide damage Grade 2 ([3]; isoxaflutole 140 g ai/ha (2×)): 0; Classification and statistics of the grade of pesticide damage Grade 3 ([3]; isoxaflutole 140 g ai/ha (2×)): 0; Scores ([3]; isoxaflutole 140 g ai/ha (2×)): 0; Resistance evaluation ([3]; isoxaflutole 280 g ai/ha (4×)): Highly resistant; Classification and statistics of the grade of pesticide damage Grade 0 ([3]; isoxaflutole 280 g ai/ha (4×)): 14; Classification and statistics of the grade of pesticide damage Grade 1 ([3]; isoxaflutole 280 g ai/ha (4×)): 1; Classification and statistics of the grade of pesticide damage Grade 2 ([3]; isoxaflutole 280 g ai/ha (4×)): 1; Classification and statistics of the grade of pesticide damage Grade 3 ([3]; isoxaflutole 280 g ai/ha (4×)): 0; Scores ([3]; isoxaflutole 280 g ai/ha (4×)): 6
2 | B2 | Highly resistant | 16 | 0 | 0 | 0 | 0 | Highly resistant | 16 | 0 | 0 | 0 | 0 | Highly resistant | 16 | 0 | 0 | 0 | 0 | Highly resistant | 16 | Classification and statistics of the grade of pesticide damage Grade 1 ([2]; topramezone 200 g ai/ha (8×)): 0; Classification and statistics of the grade of pesticide damage Grade 2 ([2]; topramezone 200 g ai/ha (8×)): 0; Classification and statistics of the grade of pesticide damage Grade 3 ([2]; topramezone 200 g ai/ha (8×)): 0; Scores ([2]; topramezone 200 g ai/ha (8×)): 0; Resistance evaluation ([3]; isoxaflutole 140 g ai/ha (2×)): Highly resistant; Classification and statistics of the grade of pesticide damage Grade 0 ([3]; isoxaflutole 140 g ai/ha (2×)): 16; Classification and statistics of the grade of pesticide damage Grade 1 ([3]; isoxaflutole 140 g ai/ha (2×)): 0; Classification and statistics of the grade of pesticide damage Grade 2 ([3]; isoxaflutole 140 g ai/ha (2×)): 0; Classification and statistics of the grade of pesticide damage Grade 3 ([3]; isoxaflutole 140 g ai/ha (2×)): 0; Scores ([3]; isoxaflutole 140 g ai/ha (2×)): 0; Resistance evaluation ([3]; isoxaflutole 280 g ai/ha (4×)): Highly resistant; Classification and statistics of the grade of pesticide damage Grade 0 ([3]; isoxaflutole 280 g ai/ha (4×)): 13; Classification and statistics of the grade of pesticide damage Grade 1 ([3]; isoxaflutole 280 g ai/ha (4×)): 3; Classification and statistics of the grade of pesticide damage Grade 2 ([3]; isoxaflutole 280 g ai/ha (4×)): 0; Classification and statistics of the grade of pesticide damage Grade 3 ([3]; isoxaflutole 280 g ai/ha (4×)): 0; Scores ([3]; isoxaflutole 280 g ai/ha (4×)): 6
